Measured values: publication PMC9596277

Experiments:
[1] = target: FcγRIIIa (CD16A) V176 on NK92-GFP-CD16A cells (V variant) (human) (UniProt P08637)
[2] = target: FcγRIIIa (CD16A) F176 on NK92-GFP-CD16A cells (F variant) (human) (UniProt P08637); test: flow cytometry on cells; NK92-GFP-CD16A cells (V or F variant) with 2.5-fold serial dilutions of palivizumab glycoforms in 1% BSA/PBS, 4°C, 30 min; detected with Alexa Fluor 647 anti-human IgG F(ab')2-specific fragment; % GFP+AF647+ cells
[3] = target: afucosylated palivizumab glycoform monogalactosylated at the α6 antenna (G1(6)) (human); test: SPR; Biacore T200, 25°C, PBS with 0.05% Tween 20 and 3.4 mM EDTA; palivizumab analogues captured on immobilised Protein A (CM-5); FcγRIIIA injected, single-cycle kinetics, 2.3 nM to 0.56 µM; 1:1 binding model, KD from the ratio of the rate constants; three repeats
Chain of afucosylated palivizumab glycoform monogalactosylated at the α6 antenna (G1(6)) (human) (heavy, as listed by the source, chain 1 of 2): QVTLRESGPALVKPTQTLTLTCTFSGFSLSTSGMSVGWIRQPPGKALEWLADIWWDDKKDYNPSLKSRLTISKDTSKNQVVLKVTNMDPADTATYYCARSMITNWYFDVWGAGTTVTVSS
Chain of afucosylated palivizumab glycoform monogalactosylated at the α6 antenna (G1(6)) (human) (light, as listed by the source, chain 2 of 2): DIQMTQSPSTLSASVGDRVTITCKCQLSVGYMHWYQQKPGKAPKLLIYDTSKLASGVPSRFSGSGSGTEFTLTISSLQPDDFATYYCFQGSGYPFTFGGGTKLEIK

[4] = target: afucosylated palivizumab glycoform monogalactosylated at the α3 antenna (G1(3)) (human); test: as above
Chain of afucosylated palivizumab glycoform monogalactosylated at the α3 antenna (G1(3)) (human) (heavy, as listed by the source, chain 1 of 2): as the sequence (heavy, as listed by the source, chain 1 of 2) above
Chain of afucosylated palivizumab glycoform monogalactosylated at the α3 antenna (G1(3)) (human) (light, as listed by the source, chain 2 of 2): as the sequence (light, as listed by the source, chain 2 of 2) above

[5] = target: afucosylated agalactosylated (G0) palivizumab glycoform (human); test: as above
Chain of afucosylated agalactosylated (G0) palivizumab glycoform (human) (heavy, as listed by the source, chain 1 of 2): as the sequence (heavy, as listed by the source, chain 1 of 2) above
Chain of afucosylated agalactosylated (G0) palivizumab glycoform (human) (light, as listed by the source, chain 2 of 2): as the sequence (light, as listed by the source, chain 2 of 2) above

[6] = target: digalactosylated afucosylated (G2) palivizumab glycoform (human); test: as above
Chain of digalactosylated afucosylated (G2) palivizumab glycoform (human) (heavy, as listed by the source, chain 1 of 2): as the sequence (heavy, as listed by the source, chain 1 of 2) above
Chain of digalactosylated afucosylated (G2) palivizumab glycoform (human) (light, as listed by the source, chain 2 of 2): as the sequence (light, as listed by the source, chain 2 of 2) above

[7] = target: commercially available palivizumab (Synagis) (human); test: SPR; same set-up as the kinetic SPR (palivizumab captured on Protein A, FcγRIIIA injected); value told as steady state binding
Chain of commercially available palivizumab (Synagis) (human) (heavy, as listed by the source, chain 1 of 2): as the sequence (heavy, as listed by the source, chain 1 of 2) above
Chain of commercially available palivizumab (Synagis) (human) (light, as listed by the source, chain 2 of 2): as the sequence (light, as listed by the source, chain 2 of 2) above

Q: “afucosylated palivizumab glycoform monogalactosylated at the α6 antenna (G1(6)) (antibody)” was tested. Which ADCC reporter assay (Jurkat T-cell luciferase reporter cells, CD16A V variant; RSV-infected Hep2 cells), activity against the G0 glycoform [1] did it give?
A: 2 fold

Q: Which maximum percent of cells bound [2] does the source give for “afucosylated agalactosylated (G0) palivizumab glycoform (antibody)” here?
A: 30%

Q: With “FcγRIIIA CD16A low binding (F) variant, National Research Council (Canada) (from UniProt P08637 17-254) (receptor)” as the substance, how does the Kd [3] read?
A: 25 to 31 nM

Q: What about the Kd [4] of the same substance?
A: 60 nM

Q: And the Kd [5]?
A: 60 nM

Q: What about the Kd [6] of the same substance?
A: 25.6 nM

Q: With “afucosylated palivizumab glycoform monogalactosylated at the α3 antenna (G1(3)) (antibody)” as the substance, how does the maximum percent of cells bound [2] read?
A: 30%

Q: How did the Kd [7] turn out when “FcγRIIIA CD16A high binding (V) variant, National Research Council (Canada) (from UniProt P08637 17-254) (receptor)” was run?
A: 1000 nM

Q: And the Kd [3]?
A: 6 nM

Q: And the Kd [4]?
A: 110 nM

Q: And the Kd [5]?
A: 110 nM

Q: What about the Kd [6] of the same substance?
A: 5.9 nM

Q: For “digalactosylated afucosylated (G2) palivizumab glycoform (antibody)”, which ADCC reporter assay (Jurkat T-cell luciferase reporter cells, CD16A V variant; RSV-infected Hep2 cells), activity against the G0 glycoform [1] is on record?
A: 2 fold
